The values below come from US20100029573A1 (IMMATICS BIOTECHNOLOGIES, published 2010).

For assay [1], the target named is MHC-A*02 tetramers complexed with the peptide … (human). In words: double tetramer staining, flow cytometry. (In general: A flow cytometer gives signals particle by particle.)
Assay [2] addresses T1, HLA-B*0702 (human).
T1 construct: MHC class I molecule without the peptide
In words: recombinant B*0702 complexed with peptide, tetramer and microspheres. The source says:
Predetermined avidity of human CD8 T cells expanded on calibrated MHC/anti-CD28-coated microspheres. J. Immunol. […] Each dot represents the percentage of tetramer+among CD8+ lymphocytes from one well.

In assay [3] the target is T1, HLA-B*0702. In words: peptide-pulsed KM22 cells; recombinant B*0702 tetramers made with the peptide.
Experimental: For the CTL assays, KM22 and JY tumor cell lines were used as target cells. Peptide-pulsed cells were pulsed with 50 μg/mL peptide for 2 hours. […] Then, 10⁴ cells/well were added to a 96-well round bottom plate. Various numbers of CTL were added to obtain an end volume of 200 μL, with subsequent incubation for 4 hrs at 37° C. Then, supernatants (500 μL/well) were harvested and counted in a beta-plate counter. Specific lysis was calculated in percent as follows: 100×(experimental release−spontaneous release/maximum release−spontaneous release). Each, spontaneous and maximum release were determined in presence of either medium or 2% Triton X-100.
Cell lines KM22 and JY are HLA-B*07 positive.

“CD8-positive T cells stimulated with RGS-5 peptide …/MHC-A*02 tetramer complexes” had a percent of stimulated cells binding the tetramer in assay [1] of 8%.
“CD8-positive T cells stimulated with melan-A peptide/MHC-A*02 tetramer complexes” displayed a percent of stimulated cells binding the tetramer in assay [1] of 19.3%.
For IARNLTQQL (also called ADFP), the binding result in assay [2] is on record as “binds”.
Regarding FPSLREAAL (also called MAGEA1; MAGE-1), the binding result in assay [3] is listed as “binds”.
